{"source": "paper PMC9288967", "about": "(Chem, 2022)", "binders": {"B1": {"name": "mNb6(WT) (VHH)", "VHH": "QVQLVESGGGLVQAGGSLRLSCAASGYIFGRNAMGWYRQAPGKERELVAGITRRGSITYYADSVKGRFTISRDNAKNTVYLQMNSLKPEDTAVYYCAADPASPAYGDYWGQGTQVTVSS"}}, "test_in_all_cases": "BLI", "key": {"[1]": {"molecular_target": "spike RBD of the Alpha variant (B.1.1.7) (SARS-CoV-2, Alpha (B.1.1.7), N501Y)"}, "[2]": {"molecular_target": "spike RBD of the Epsilon variant (SARS-CoV-2, Epsilon (B.1.429), strain)"}, "[3]": {"molecular_target": "spike RBD of the Lambda variant (SARS-CoV-2, Lambda (C.37), strain)"}}}
{"binder": "B1", "values": [{"measurement": "Kd", "setting": "[1]", "result": 1.5, "unit": "nM"}, {"measurement": "Kd", "setting": "[2]", "result": "1.32 ± 0.11", "unit": "nM"}, {"measurement": "Kd", "setting": "[3]", "result": "2.86 ± 0.77", "unit": "nM"}]}
